Measured values taken from patent publication US12552837.
*1 amine or outer side, *2 acyl side, *3 side chain or, on linkers, in order; H or OH if unused. Bridges are numbered along the chain shown (N, C = ends). [ ]: non-standard residue; d: D form. The star is where a group is joined. DOTA = O=C(O)CN1CCN(CC(=O)O)CCN(CC(=O)*)CCN(CC(=O)O)CC1; 1Nal = N[C@@H](Cc1cccc2ccccc12)C(=O)O; TBMB = c1c(C[*:1])cc(C[*:3])cc1C[*:2]; Tle = CC(C)(C)[C@H](N)C(=O)O

Biological target: membrane type 1-matrix metalloproteinase (MT1-MMP), P50281
Assay: not stated at the place; fluorescence polarization with MT1-MMP hemopexin domain per Examples 7-8

B1: I-23 (peptide)
peptide: {DOTA}-AC[dA]NE[1Nal][dA]CEDFYD[Tle]C-NH2
modifications: linker 2-8-15 via TBMB
SMILES: C[C@H](NC(=O)CN1CCN(CC(=O)O)CCN(CC(=O)O)CCN(CC(=O)O)CC1)C(=O)N[C@H]1CSCc2cc3cc(c2)CSC[C@H](NC(=O)[C@@H](C)NC(=O)[C@H](Cc2cccc4ccccc24)NC(=O)[C@H](CCC(=O)O)NC(=O)[C@H](CC(N)=O)NC(=O)[C@@H](C)NC1=O)C(=O)N[C@@H](CCC(=O)O)C(=O)N[C@@H](CC(=O)O)C(=O)N[C@@H](Cc1ccccc1)C(=O)N[C@@H](Cc1ccc(O)cc1)C(=O)N[C@@H](CC(=O)O)C(=O)N[C@@H](C(C)(C)C)C(=O)N[C@H](C(N)=O)CSC3
Question: How did the Kd turn out when B1 was run?
Answer: 0.52 nM
